Experimental data published in publication PMC10003956, “To the Understanding of Catalysis by D-Amino Acid Transaminases: A Case Study of the Enzyme from Aminobacterium colombiense” (Molecules, 2023).

Molecular target: D-amino acid transaminase from Aminobacterium colombiense (AmicoTA) (Aminobacterium colombiense)
Assay: SEC; gel filtration of AmicoTA in solution (Figure S7); conditions not told for this experiment

“D-amino acid transaminase from Aminobacterium colombiense (AmicoTA) (enzyme)” was tested, and the stoichiometry N was 2.
